Here are results for 1 molecule from publication PMC3634016 (2013).

This experiment deals with Ca^2+-CaM pre-bound to the mammalian Cav1.2 IQ peptide (rat | human, UniProt P0DP29 1-149). Kind of experiment: ITC; Ca2+; CaM pre-bound to Cav1.2 IQ. In general terms: In ITC the heat of successive injections is recorded.

B1: mammalian NSCaTE_(Cav1.2) peptide (peptide)
peptide: SWQAAIDAARQAKLMGS
The term Kd denotes a measure of binding affinity in units of concentration. B1 returned a Kd of 1.8 µM.
